The values that follow come from paper PMC11535040, “Requirement of Nek2a and cyclin A2 for Wapl-dependent removal of cohesin from prophase chromatin” (The EMBO Journal, 2024).

In the experiment the target is T1, Flag-tagged Pds5a (human, UniProt Q29RF7 1-1337).
T1 construct: Pds5a, human; insert by PCR on human cDNA; also called Flag-Pds5; source: Hek293T, transfected (alone or with eGFP-Nek2aΔMR and eGFP-Δ86-cyclin A2), taxol-arrested
T1 sequence (looked up): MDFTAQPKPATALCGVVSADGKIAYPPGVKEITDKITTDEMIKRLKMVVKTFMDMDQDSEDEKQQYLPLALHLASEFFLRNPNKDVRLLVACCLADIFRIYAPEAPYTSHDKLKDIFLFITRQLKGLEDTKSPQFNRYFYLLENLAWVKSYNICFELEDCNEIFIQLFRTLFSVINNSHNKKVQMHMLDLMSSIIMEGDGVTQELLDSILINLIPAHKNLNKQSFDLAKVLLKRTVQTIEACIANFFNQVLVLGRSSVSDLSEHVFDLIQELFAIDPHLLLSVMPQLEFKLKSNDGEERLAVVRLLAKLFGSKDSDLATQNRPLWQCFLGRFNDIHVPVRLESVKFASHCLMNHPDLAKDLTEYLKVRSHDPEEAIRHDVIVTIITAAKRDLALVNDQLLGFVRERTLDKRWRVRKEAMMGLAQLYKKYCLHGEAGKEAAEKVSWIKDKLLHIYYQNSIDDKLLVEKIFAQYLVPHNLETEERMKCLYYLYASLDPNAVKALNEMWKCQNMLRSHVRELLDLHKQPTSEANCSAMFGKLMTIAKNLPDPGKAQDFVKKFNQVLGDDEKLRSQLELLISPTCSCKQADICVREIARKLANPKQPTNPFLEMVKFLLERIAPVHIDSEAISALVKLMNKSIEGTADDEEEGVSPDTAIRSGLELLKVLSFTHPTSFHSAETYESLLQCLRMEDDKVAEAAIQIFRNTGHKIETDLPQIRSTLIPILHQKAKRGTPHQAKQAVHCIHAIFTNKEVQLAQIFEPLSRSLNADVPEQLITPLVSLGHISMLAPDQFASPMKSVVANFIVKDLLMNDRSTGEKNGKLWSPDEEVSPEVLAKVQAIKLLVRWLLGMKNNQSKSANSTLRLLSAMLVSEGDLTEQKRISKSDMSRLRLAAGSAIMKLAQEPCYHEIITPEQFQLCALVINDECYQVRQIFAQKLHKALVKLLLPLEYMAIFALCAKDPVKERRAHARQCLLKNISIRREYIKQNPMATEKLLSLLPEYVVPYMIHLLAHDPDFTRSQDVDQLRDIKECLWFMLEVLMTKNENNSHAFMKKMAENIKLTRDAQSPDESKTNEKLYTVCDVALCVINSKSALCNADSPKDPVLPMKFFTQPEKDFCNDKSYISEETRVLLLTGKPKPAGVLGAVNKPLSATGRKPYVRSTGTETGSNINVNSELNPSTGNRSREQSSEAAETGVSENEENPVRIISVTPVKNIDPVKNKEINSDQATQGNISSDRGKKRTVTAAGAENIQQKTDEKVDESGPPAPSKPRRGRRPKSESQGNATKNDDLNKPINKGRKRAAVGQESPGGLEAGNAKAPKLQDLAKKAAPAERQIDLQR
The experiment in a line: pull-down; Flag-Pds5a or -b affinity-purified on anti-Flag beads from chromatin-free lysates of taxol-arrested Hek293T cells (expressed alone or with Nek2aΔMR and/or Δ86-cyclin A2); beads incubated with a mixture of recombinant Wapl (2 µl) and sororin (0.3 µg) in 15 µl cleavage buffer with kinase inhibitors, 20 min at 37 °C; bound and unbound fractions by immunoblotting. Particulars: both partners purified.

B1: recombinant human Wapl (natural protein, UniProt Q7Z5K2 1-1190, looked up)
chain: MTSRFGKTYSRKGGNGSSKFDEVFSNKRTTLSTKWGETTFMAKLGQKRPNFKPDIQEIPKKPKVEEESTGDPFGFDSDDESLPVSSKNLAQVKCSSYSESSEAAQLEEVTSVLEANSKISHVVVEDTVVSDKCFPLEDTLLGKEKSTNRIVEDDASISSCNKLITSDKVENFHEEHEKNSHHIHKNADDSTKKPNAETTVASEIKETNDTWNSQFGKRPESPSEISPIKGSVRTGLFEWDNDFEDIRSEDCILSLDSDPLLEMKDDDFKNRLENLNEAIEEDIVQSVLRPTNCRTYCRANKTKSSQGASNFDKLMDGTSQALAKANSESSKDGLNQAKKGGVSCGTSFRGTVGRTRDYTVLHPSCLSVCNVTIQDTMERSMDEFTASTPADLGEAGRLRKKADIATSKTTTRFRPSNTKSKKDVKLEFFGFEDHETGGDEGGSGSSNYKIKYFGFDDLSESEDDEDDDCQVERKTSKKRTKTAPSPSLQPPPESNDNSQDSQSGTNNAENLDFTEDLPGVPESVKKPINKQGDKSKENTRKIFSGPKRSPTKAVYNARHWNHPDSEELPGPPVVKPQSVTVRLSSKEPNQKDDGVFKAPAPPSKVIKTVTIPTQPYQDIVTALKCRREDKELYTVVQHVKHFNDVVEFGENQEFTDDIEYLLSGLKSTQPLNTRCLSVISLATKCAMPSFRMHLRAHGMVAMVFKTLDDSQHHQNLSLCTAALMYILSRDRLNMDLDRASLDLMIRLLELEQDASSAKLLNEKDMNKIKEKIRRLCETVHNKHLDLENITTGHLAMETLLSLTSKRAGDWFKEELRLLGGLDHIVDKVKECVDHLSRDEDEEKLVASLWGAERCLRVLESVTVHNPENQSYLIAYKDSQLIVSSAKALQHCEELIQQYNRAEDSICLADSKPLPHQNVTNHVGKAVEDCMRAIIGVLLNLTNDNEWGSTKTGEQDGLIGTALNCVLQVPKYLPQEQRFDIRVLGLGLLINLVEYSARNRHCLVNMETSCSFDSSICSGEGDDSLRIGGQVHAVQALVQLFLERERAAQLAESKTDELIKDAPTTQHDKSGEWQETSGEIQWVSTEKTDGTEEKHKKEEEDEELDLNKALQHAGKHMEDCIVASYTALLLGCLCQESPINVTTVREYLPEGDFSIMTEMLKKFLSFMNLTCAVGTTGQKSISRVIEYLEHC
notes: Wapl, human; insert by PCR on human cDNA; Isolated from mitotically arrested cells; also called GFP-SUMOstar-Wapl; source: Hek293T, transiently transfected, taxol-arrested; not shown: GFP, N-terminal, cleaved; SUMOstar, N-terminal, cleaved
As to B1, the binding result was “binds”.
